Measurements: the Human Domainome abundance scans (Beltran et al. 2025)
± gives the uncertainty stated by the source.

B1: Gamma-crystallin S, residues 96 to 176; numbered along this chain, P22914 (parent)
chain: IQIFEKGDFSGQMYETTEDCPSIMEQFHMREIHSCKVLEGVWIFYELPNYRGRQYLLDKKEYRKPIDWGAASPAVQSFRRI

Variants of: B1
Experiment: abundance fitness (aPCA) (normalised: wild type 0, dead -1); higher = more abundant; growth selection in yeast, the domain comes from the species named
Conditions: Homo sapiens

Abundance fitness of substitutions, site by site:
I1: F 0.011 ± 0.091, A -0.239 ± 0.051, W -1.16 ± 0.44, N -0.968 ± 0.37, V 0.05 ± 0.073, H 0.005 ± 0.46, T -0.191 ± 0.13, S -0.973 ± 0.078, K -0.732 ± 0.35, R -1.07 ± 0.23, G -1.18 ± 0.16, L -0.154 ± 0.084, C 0.104 ± 0.11
K6: F 0.099 ± 0.13, V 0.033 ± 0.062, Y -0.033 ± 0.096, I -0.009 ± 0.1, M 0.049 ± 0.087, H -0.02 ± 0.15, S 0.085 ± 0.06, G 0.004 ± 0.044, D 0.015 ± 0.085, A 0.007 ± 0.066, R -0.047 ± 0.048, E 0 ± 0.08, Q -0.056 ± 0.074, L -0.058 ± 0.067, P -1.1 ± 0.21, T 0.007 ± 0.095
M13: D -0.032 ± 0.16, I 0.062 ± 0.098, P 0.027 ± 0.059, N -0.083 ± 0.11, G -0.041 ± 0.04, C -0.012 ± 0.076, K -0.032 ± 0.064, A -0.011 ± 0.051, F -0.04 ± 0.14, H 0.005 ± 0.099, E 0.028 ± 0.061
G11: K 0.105 ± 0.081, R -0.135 ± 0.032, H -0.021 ± 0.074, D -0.009 ± 0.088, E -0.01 ± 0.062, S 0.06 ± 0.035, C 0.066 ± 0.057, F -0.294 ± 0.069, P 0.012 ± 0.057, I -0.372 ± 0.17, M 0.062 ± 0.055, Q -0.003 ± 0.044, Y -0.094 ± 0.097, A 0.041 ± 0.042, L -0.137 ± 0.041, W -0.171 ± 0.045, N -0.002 ± 0.14, V -0.208 ± 0.04
Q2: D -0.053 ± 0.084, M -0.077 ± 0.1, T -0.066 ± 0.087, S 0.039 ± 0.075, H 0.088 ± 0.086, G 0.035 ± 0.046, C 0.027 ± 0.13, K 0.022 ± 0.085, A -0.075 ± 0.042, I 0.221 ± 0.41, Y -0.099 ± 0.15, V -0.041 ± 0.056, W 0.003 ± 0.068, P -0.876 ± 0.22, R 0.027 ± 0.04, F 0.17 ± 0.16, N 0.124 ± 0.13
D8: V 0.039 ± 0.036, N 0.074 ± 0.087, C 0.111 ± 0.092, T 0.063 ± 0.052, Y 0.078 ± 0.063, A 0.038 ± 0.047, F 0.066 ± 0.1, S 0.093 ± 0.039, P -0.012 ± 0.062, H 0.088 ± 0.083, I 0.025 ± 0.084, K 0.162 ± 0.085, L 0.074 ± 0.038, R 0.081 ± 0.035
F9: M 0.061 ± 0.068, H 0.067 ± 0.09, Y -0.008 ± 0.092, S -0.068 ± 0.042, R -0.126 ± 0.037, P -0.481 ± 0.052, T -0.051 ± 0.057, V -0.12 ± 0.036, A -0.064 ± 0.035, D -0.409 ± 0.061, W -0.018 ± 0.053, I -0.009 ± 0.083, E -0.18 ± 0.049, C 0.054 ± 0.056, N 0.068 ± 0.082, Q 0.027 ± 0.071, K -0.095 ± 0.072, G -0.035 ± 0.03
Q12: Y 0.035 ± 0.13, P 0.013 ± 0.059, H -0.04 ± 0.12, R 0.025 ± 0.047, D 0.012 ± 0.089, A -0.02 ± 0.036, E -0.053 ± 0.059, V 0.005 ± 0.039, N 0.09 ± 0.095, G 0.033 ± 0.032, S 0.023 ± 0.052, C -0.093 ± 0.056, F -0.053 ± 0.084, T 0.053 ± 0.084, M 0.001 ± 0.071, L -0.014 ± 0.047
I3: Q -1.08 ± 0.23, Y -0.286 ± 0.1, L -0.02 ± 0.053, N -0.627 ± 0.14, H -0.777 ± 0.26, S -0.931 ± 0.13, M -0.018 ± 0.072, K -1.12 ± 0.24, E -1 ± 0.22, A -0.141 ± 0.061, W -0.047 ± 0.056, R -0.703 ± 0.081, D -0.705 ± 0.38, G -0.716 ± 0.067, C -0.029 ± 0.092, P -1.2 ± 0.23, F 0.031 ± 0.11, T -0.185 ± 0.053
G7: H 0.013 ± 0.076, N -0.16 ± 0.13, K 0.079 ± 0.055, M 0.012 ± 0.07, D -0.019 ± 0.091, E -0.027 ± 0.061, T -0.03 ± 0.042, S -0.01 ± 0.054, Y -0.025 ± 0.086, P 0.007 ± 0.066, A 0.043 ± 0.043, Q -0.099 ± 0.064, R 0.052 ± 0.033, W -0.041 ± 0.049, C -0.367 ± 0.086, F 0.084 ± 0.12, V -0.012 ± 0.043, I 0.034 ± 0.14
E5: Q 0.12 ± 0.092, L 0.013 ± 0.051, D -0.05 ± 0.062, V 0.051 ± 0.039, H -0.041 ± 0.11, W 0.006 ± 0.072, R -0.002 ± 0.047, G -0.02 ± 0.039
